Measured values from the nanobody polyreactivity screen of Harvey et al. (2022).

Assay: yeast display, Sf9 membrane polyspecificity reagent, FACS + sequencing; frameworks hold sequencing errors
Summary of the method: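 Polyreactivity labels are assigned by the sorting gate from which each nanobody was recovered. The gates were low and high (top ~1%), set on anti-HA fluorescence for expression and streptavidin fluorescence for reagent binding. Before sorting, galactose-induced (36–48 hours) yeast display cells were stained for 1 hour at 4 °C with 10% biotinylated, detergent-solubilized Sf9 membrane reagent.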

Row | Sequence | polyreactivity (PSR sort gate)
1 | QDQLVESGGGLVQAGGSLRLSCAASGRLFDLNAMGWNRQAPGTERELVAVISWSGGITYYADSVKGRFTSSRDNAKNTVYLLMNSLKPEDTAVYYCNADTDFDPYYEFDYWGQGTQVTVSS | low polyreactivity
2 | QDQLVESGGGLVQAGGSLRLSCAASGRTFAFKSMGWYRQAPGKERELVAAIRWSGGTTYYADSVKGRFTISRDNANNTVYLQMNSLKPEDTAVYYCATGKWVYFRYNYWGLGTQVTVSS | high polyreactivity
3 | QDQLVESGGGLVQAGGSLRLSCAASGRTFRKYAMGWYRPAPGKEREFVAAITSSGGSTYYADSVKGRYTISRDNAKNTVYLQMNSLKPEDTAVYYCAAARTSTGTYRYEYWGQGTQVTVSS | high polyreactivity
4 | QDQLVESGGGLVQAGGSLRLSCAASGRTFRYYAMGWYRQAPRKERELVAAISSGGSTNYADSVKARFTISRDNAKNTVYLQMNRLKPEDTGVYYCAVQAWYMTYSYPYSKGYYWGQGTQLTVSS | high polyreactivity
5 | QDQLVESGGGLVQAGGSLRLSCAASGRTFSINAMGWYRQAPGKERELVASISSRGTRTNYADSVKGRFTISRDNAKNTVYLQMNSLKPEDTGVYYCAADRYYPYYSAWREYEYWGQGTQVTVSS | high polyreactivity
6 | QDQLVESGGGLVQAGGSLRLSCAASGRTFYDNAMGWYRQAPGKERELVAAITWRGGGTYYADSVKGRFTISRDNAKNTVYLQMNSLKPEDTAVYYCAADSSGTGFYAYTDGEEKYSWGQGTQVTVSS | high polyreactivity
7 | QDQLVESGGGLVQAGGSLRLSCAASGRTLGKNAMGWYRQAPGTERELVAAISSSGGSTYYADSVKGRFTISRDNAKNTVYLQMNSLKPEDTAVYYCAAKYFRKYSQIGPDMYYWGQGTQVTVSS | high polyreactivity
8 | QDQLVESGGGLVQAGGSLRLSCAASGRTLYLYAMGWYRQAPGKERELVAGISWSGTSTYYADSVKGRFTISRYNAKNTVYLQMNSLKPEDTAVYYCAADSYPAYLGFVGFDYWGQGTQVTVSS | low polyreactivity
9 | QDQLVESGGGLVQAGGSLRLSCAASGSIFAGYVMGWYRQAPGKERELVASISSGTGTFYADSVKGRFTISRDNAKNTVYLQMNSLKPEDTAVYYCAAESYRTVQFIRSRWRYTYDYWGQGTQVTVSS | low polyreactivity
10 | QDQLVESGGGLVQAGGSLRLSCAASGSIFGAYARGWYRQAPGKERELVAAISGSGTSTYYADSVKGRFTISRDNAKNTVYLQMNSLKPEDTAVYYCAADGTYFYIYLGDRFDYWGQGTQVTVSS | low polyreactivity
11 | QDQLVESGGGLVQAGGSLRLSCAASGSIFNPYAMGWYRQAPGKERELVAAITSGGYTYADSVKGRFTISRDNAKNTVYLQMNSLKPEDTAVYYCAADRSYVYAGADMYYWGQGTQVTVSS | low polyreactivity
12 | QDQLVESGGGLVQAGGSLRLSCAASGSIFQYYAMGWYRQAPGKERELVAAISYSGDGTFYADSVKGRFTISRDNAKNSVYLQMNSLKPVDTAVYYCAASSTGYGGSTYYYWGQGTQVTVSS | low polyreactivity
13 | QDQLVESGGGLVQAGGSLRLSCAASGSIFRYVMGWYRQAPGNERELVAAISIRGGSTYYADSVKGRFTISRDNAKNTVFFQMHSLKPEDTAVYYCAADRYRLGVKYDYWGQGTQVTVSS | high polyreactivity
14 | QDQLVESGGGLVQAGGSLRLSCAASGSIFVQYAMGWYRQAPGKERELVATISSSGGSTYYADSVKGRFTISRDNAKNTVYLQMNCLKPEDTAVYYCAADWTLDPSYGYYADDYWGQGTQVTVSS | low polyreactivity
15 | QDQLVESGGGLVQAGGSLRLSCAASGSIFWLNAMGWYRQAPGKERELVAAITTVDSTYYADSVKGRFTISRDNAKNTVYLQMNSLKPEDTAVYYCAASGRQSRYDYWGQGTQVTVSS | low polyreactivity
16 | QDQLVESGGGLVQAGGSLRLSCAASGSIFWLYTMGWYRQAPGKERELVAAITGSGSSTYYADSVKGRFTISRDNAKNTVYLQMNSLKPEDTAVYYCAAYWSSARRRYDYWGQGTQVTVSS | high polyreactivity

Row | Sequence | polyreactivity (PSR sort gate)
17 | QDQLVESGGGLVQAGGSLRLSCAASGSIFYPYAMGWYRQATGKEREFVAGITTRGGSTYYADSVKGRFTISRDNAKNTVYLQMNSLKPVDTAVYYCNAGYYLTLDYWGQGTQVTVSS | high polyreactivity
18 | QDQLVESGGGLVQAGGSLRLSCAASGSIFYRYAMGWYRQARGKVREFVAGITYSSGTTYYADSVKGRFTISRDNAKNTVYLQMNSLKPEETAVYYCAAELRSSYYRRAMDYCGQGTQVTVSS | high polyreactivity
19 | QDQLVESGGGLVQAGGSLRLSCAASGSTFGYYAMGWYRQAPGKERELVAAITWNGGSTYADSVKGRFTISRDNAKNTVYLQMNSLKPEDTAVYYCAALVHRRVQYDYWGQGTQVTVSS | high polyreactivity
20 | QDQLVESGGGLVQAGGSLRLSCAASGSTFHLYAMGWYRQAPGKERELVAAITRRGSDTYYADSVKGRFTISRDNAKNTVYLQMNSLKPEDTAVYYCAARDRHPVWGQGTQVTVSS | low polyreactivity
21 | QDQLVESGGGLVQAGGSLRLSCAASGSTFPAYAMGWYRQAPGKERELVAAISVRRGRTYYADSVKGRFTSSRDNAKNTVYLQMNSLKPDDTAVYYCAAYLRPGGNYYWGQGTQVTVSS | high polyreactivity
22 | QDQLVESGGGLVQAGGSLRLSCAASGSTFPDYAAMGWYRPAPGTERELVAAISKRGGSTYYADSVKGRFTISRDNAKNTVYYQMNSLKPEDTAVYSCNVEYYILTAGRYARAYDYGGQGTQVTVSS | high polyreactivity
23 | QDQLVESGGGLVQAGGSLRLSCAASGSTFPRYAMGWSRQAPGKERELVAAISSSGRTYYADSVKGRFTISRDNEKNTVYLQMNSLKPEDTAVYYCNAYPVFRSYDYWGQGTQVTVSS | high polyreactivity
24 | QDQLVESGGGLVQAGGSLRLSCAASGSTFQTYAMGWYRQAPGKEREVVAAISFNGGSTYYADSVKGRFTISRDNAKNTVYLQMNSLKPEDTAVYSCAVEYTWASALYDGRHDYWGQGTQVTVSS | high polyreactivity
25 | QDQLVESGGGLVQAGGSLRLSCAASGSTFRRYDMGWYRQAPGKERELVAAISHRTGRTSYADSVKGRFTISRDNAKNTVYLQMNSLKTEDTAVYYCAADHTYYRQGYDYWGQGTQVTVSS | high polyreactivity
26 | QDQLVESGGGLVQAGGSLRLSCAASGSTFSWYAMGWYRQAPGKERELVAAINNRSGSTSYADSVKGRFTISRDNAKNTVYLQMNSLKPEDTAVYYCAAEGTDGLYDWEYDYWGQGTQVTVSS | high polyreactivity
27 | QDQLVESGGGLVQAGGSLRLSCAASGSTFSYNAMGWYRQAPGKERELVAAIRWSGGSTYADSVKGRFTISRDNAKNTVYLQMNSLNPEDTAVYYCAARNFGYPELRYYYWGQGTQVTVSS | high polyreactivity
28 | QDQLVESGGGLVQAGGSLRLSCAASGSTFTDYDMGWYRQAPGKERELVAAITSGGSTNYADSVKGRFTISRDNAKNTVYLQMNSLKPEDTAVYYCAAELRYYLYDVVYIVTYDYWGQGTQVTVSS | low polyreactivity
29 | QDQLVESGGGLVQAGGSLRLSCAASGSTFTKYAMGWYRQAPGKERELVAAIISYRVGSTYYADSVKGRFTISRDNAKINVYLVMKSLIPEDTAAFYCAAVWKPPGFSTMYYWGQGTEVTVSS | high polyreactivity
30 | QDQLVESGGGLVQAGGSLRLSCAASGSTFVDNAIGWYRQAPGKERELVAAISRGGSTHYADSVKGRFTISRDNAKNTVYLQMNSLKPEDTAVYYCAAVIDSREEYWGQGTQVTVSS | high polyreactivity
31 | QDQLVESGGGLVQAGGSLRLSCAASGSTFVGNAMGWYRQAPGKERELVAAISRTGGSTYYADSVKGRFTISRDNAKNTVYLQMNSLKPEDTAVYYCAARRYDIRYYYVTYRPPKMYYWGQGTQVTVSS | high polyreactivity
